Our source for the activity (% B2M knockout), killing of CD19+ Raji cells in 16 h co-culture (CAR T cells made with AAV added 0-24 hours after LNP) and killing of CD19+ Raji cells in 16 h co-culture (CAR T cells made with AAV added 24-48 hours after LNP) values is patent publication US20220204994A1.

Data set [1] relates to B2M13-14.479 engineered meganuclease (Artificial). In words: cell_activity. As to conditions: MC3 LNP repeat dose day 0 and day 3, ApoE, measured day 7; 22.62% in the comparison without repeat dosing.
The target of data set [2] is CD19 on Raji cells (B cell lymphoma line, Burkitt's Lymphoma) (UniProt P15391). In words: cell-based or functional assay.
UniProt P15391, sequence (P15391 20-556 limits assumed): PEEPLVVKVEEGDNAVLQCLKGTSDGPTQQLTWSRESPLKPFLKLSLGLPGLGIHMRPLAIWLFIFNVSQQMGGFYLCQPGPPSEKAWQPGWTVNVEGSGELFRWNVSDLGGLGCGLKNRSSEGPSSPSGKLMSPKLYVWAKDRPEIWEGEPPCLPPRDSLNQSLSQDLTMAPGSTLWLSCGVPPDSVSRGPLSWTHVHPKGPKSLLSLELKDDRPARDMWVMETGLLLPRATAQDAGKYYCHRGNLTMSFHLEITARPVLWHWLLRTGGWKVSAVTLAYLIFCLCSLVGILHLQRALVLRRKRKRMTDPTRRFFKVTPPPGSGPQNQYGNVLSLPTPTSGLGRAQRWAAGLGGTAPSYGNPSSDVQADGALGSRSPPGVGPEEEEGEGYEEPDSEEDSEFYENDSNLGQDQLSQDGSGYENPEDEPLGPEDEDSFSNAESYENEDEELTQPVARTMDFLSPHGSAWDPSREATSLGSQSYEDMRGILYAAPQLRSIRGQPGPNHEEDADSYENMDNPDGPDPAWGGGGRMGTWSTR

With “B2M 13-14 recognition sequence (B2M gene)”, the activity (% B2M knockout) in data set [1] amounted to 26.4.
In data set [2], “anti-CD19 CAR (FMC63) expressed on human donor T cells after AAV6-7206 transduction” yielded a killing of CD19+ Raji cells in 16 h co-culture (CAR T cells made with AAV added 0-24 hours after LNP) of 99% and a killing of CD19+ Raji cells in 16 h co-culture (CAR T cells made with AAV added 24-48 hours after LNP) of 94%.
